Data reported in PMC13083842 (2026).

T1: soluble IL-6 receptor (sIL-6R) (human (from the printed accession …, UniProt P08887 20-355))
T1 chain: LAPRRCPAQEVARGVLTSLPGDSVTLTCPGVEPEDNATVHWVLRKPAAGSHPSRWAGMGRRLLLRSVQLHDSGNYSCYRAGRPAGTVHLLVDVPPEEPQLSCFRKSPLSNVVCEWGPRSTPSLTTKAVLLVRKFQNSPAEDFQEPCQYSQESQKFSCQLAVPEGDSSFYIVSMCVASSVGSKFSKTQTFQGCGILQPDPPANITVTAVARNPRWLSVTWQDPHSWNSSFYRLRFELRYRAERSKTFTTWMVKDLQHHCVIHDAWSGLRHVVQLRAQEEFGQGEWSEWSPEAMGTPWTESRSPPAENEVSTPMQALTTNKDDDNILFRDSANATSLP

B1: sIL-6R-TGN 1:1 (receptor)
chain: T1 chain
modifications: Tris-GalNAc-PEG5 (TGN) on accessible primary amines (lysines), not site-specific; coupling ratio 1:1; GPR could not be determined
B2: sIL-6R-TGN 1:5 (receptor)
chain: T1 chain
modifications: Tris-GalNAc-PEG5 (TGN) on accessible primary amines (lysines), not site-specific; coupling ratio 1:5; GPR could not be determined
B3: sIL-6R-TGN 1:10 (receptor)
chain: T1 chain
modifications: Tris-GalNAc-PEG5 (TGN) on accessible primary amines (lysines), not site-specific; coupling ratio 1:10; GPR could not be determined
B4: tocilizumab-TGN 1:10 (antibody, V domains shown)
VH: QVQLQESGPGLVRPSQTLSLTCTVSGYSITSDHAWSWVRQPPGRGLEWIGYISYSGITTYNPSLKSRVTMLRDTSKNQFSLRLSSVTAADTAVYYCARSLARTTAMDYWGQGSLVTVSS
VL: DIQMTQSPSSLSASVGDRVTITCRASQDISSYLNWYQQKPGKAPKLLIYYTSRLHSGVPSRFSGSGSGTDFTFTISSLQPEDIATYYCQQGNTLPYTFGQGTKVEIK
modifications: Tris-GalNAc-PEG5 (TGN) on accessible primary amines (lysines), not site-specific; coupling ratio 1:10; GPR 4.75 for the antibody | Tris-GalNAc-PEG5 (TGN) on accessible primary amines (lysines), not site-specific; coupling ratio 1:10; GPR 4.75 for the antibody
B5: tocilizumab (antibody, V domains shown)
VH: B4 VH
VL: B4 VL
B6: tocilizumab-TGN 1:25 (antibody, V domains shown)
VH: B4 VH
VL: B4 VL
modifications: Tris-GalNAc-PEG5 (TGN) on accessible primary amines (lysines), not site-specific; coupling ratio 1:25; GPR of 15.36 for the antibody | Tris-GalNAc-PEG5 (TGN) on accessible primary amines (lysines), not site-specific; coupling ratio 1:25; GPR of 15.36 for the antibody
B7: tocilizumab-TGN 1:1 (antibody, V domains shown)
VH: B4 VH
VL: B4 VL
modifications: Tris-GalNAc-PEG5 (TGN) on accessible primary amines (lysines), not site-specific; coupling ratio 1:1; GPR = 0.35 for the antibody | Tris-GalNAc-PEG5 (TGN) on accessible primary amines (lysines), not site-specific; coupling ratio 1:1; GPR = 0.35 for the antibody
B8: tocilizumab-TGN 1:5 (antibody, V domains shown)
VH: B4 VH
VL: B4 VL
modifications: Tris-GalNAc-PEG5 (TGN) on accessible primary amines (lysines), not site-specific; coupling ratio 1:5; GPR 2.51 for the antibody | Tris-GalNAc-PEG5 (TGN) on accessible primary amines (lysines), not site-specific; coupling ratio 1:5; GPR 2.51 for the antibody
B9: siltuximab-TGN 1:1 (antibody, V domains shown)
VH: EVQLVESGGKLLKPGGSLKLSCAASGFTFSSFAMSWFRQSPEKRLEWVAEISSGGSYTYYPDTVTGRFTISRDNAKNTLYLEMSSLRSEDTAMYYCARGLWGYYALDYWGQGTSVTVSS
VL: QIVLIQSPAIMSASPGEKVTMTCSASSSVSYMYWYQQKPGSSPRLLIYDTSNLASGVPVRFSGSGSGTSYSLTISRMEAEDAATYYCQQWSGYPYTFGGGTKLEIK
modifications: Tris-GalNAc-PEG5 (TGN) on accessible primary amines (lysines), not site-specific; coupling ratio 1:1; GPR = 0.2 for the antibody | Tris-GalNAc-PEG5 (TGN) on accessible primary amines (lysines), not site-specific; coupling ratio 1:1; GPR = 0.2 for the antibody
B10: siltuximab-TGN 1:5 (antibody, V domains shown)
VH: B9 VH
VL: B9 VL
modifications: Tris-GalNAc-PEG5 (TGN) on accessible primary amines (lysines), not site-specific; coupling ratio 1:5 | Tris-GalNAc-PEG5 (TGN) on accessible primary amines (lysines), not site-specific; coupling ratio 1:5
B11: siltuximab (antibody, V domains shown)
VH: B9 VH
VL: B9 VL
B12: siltuximab-TGN 1:10 (antibody, V domains shown)
VH: B9 VH
VL: B9 VL
modifications: Tris-GalNAc-PEG5 (TGN) on accessible primary amines (lysines), not site-specific; coupling ratio 1:10 | Tris-GalNAc-PEG5 (TGN) on accessible primary amines (lysines), not site-specific; coupling ratio 1:10

molecular target: T2, interleukin-6 (IL-6) (human, UniProt P05231 30-212); experiment: SPR
T2 sequence (P05231 30-212): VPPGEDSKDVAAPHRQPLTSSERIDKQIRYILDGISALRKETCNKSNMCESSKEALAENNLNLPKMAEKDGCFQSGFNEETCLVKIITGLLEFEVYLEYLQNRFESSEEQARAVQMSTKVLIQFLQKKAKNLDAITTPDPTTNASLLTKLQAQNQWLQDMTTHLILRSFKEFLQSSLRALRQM

B1 and B2 are within 1.5-fold of each other in Kd: 166000 pM for the first, 230000 pM for the second.

Work on B3 yielded a Kd of 428000 pM.

Molecular target: T1, soluble IL-6 receptor (sIL-6R)
Experiment: SPR

Compared with B4, B5 is 3.1-fold lower in Kd: 212 pM for the first, 68 pM for the second. The second binds more tightly here.

Compared with B6, B7 is lower in Kd: 328 pM for the first, < 38 pM for the second. The second binds more tightly here.

B8 showed a Kd of 93 pM.

molecular target: T2, interleukin-6 (IL-6); experiment: SPR; remark: another data set of the same source

B9 and B10 cannot be ordered by Kd: < 19 pM for the first, < 27 pM for the second.

B11 and B12 cannot be ordered by Kd: < 22 pM for the first, < 36 pM for the second.
